Experimental data reported in PMC12723238, “Structural basis for T-cell intracellular antigen-1 amyloid fibril formation revealed by cryo-electron microscopy” (PNAS Nexus, 2025).

B1: human wild-type TIA-1 short prion-like domain (sPLD), residues 320-386 (domain or fragment, UniProt P31483 320-386, looked up)
chain: GQYMPNGWQVPAYGMYGQAWNQQGFNQTQSSAPWMGPNYGVQPPQGQNGSMLPNQPSGYRVAGYETQ
notes: T-cell intracellular antigen-1 (TIA-1), human, 386 residues; short PLD, residues 320-386; Only residues 336-360 are resolved in the fibril structure; also called WT TIA-1 sPLD; TIA-1 sPLD
B2: human TIA-1 sPLD (residues 320-386) with the G355R missense mutation (domain or fragment, UniProt P31483 320-386, looked up)
chain: GQYMPNGWQVPAYGMYGQAWNQQGFNQTQSSAPWMRPNYGVQPPQGQNGSMLPNQPSGYRVAGYETQ
notes: TIA-1, human, short PLD, residues 320-386, with G355R (found in genetic research on ALS/FTD); Only residues 334-349 are resolved in the fibril structure; also called G355R TIA-1 sPLD; TIA-1 G355R fibrils
B3: human TIA-1 sPLD (residues 320-386) Q348L (domain or fragment, UniProt P31483 320-386, looked up)
chain: GQYMPNGWQVPAYGMYGQAWNQQGFNQTLSSAPWMGPNYGVQPPQGQNGSMLPNQPSGYRVAGYETQ
notes: TIA-1, human, short PLD, residues 320-386, with Q348L
B4: human TIA-1 sPLD (residues 320-386) M354A (domain or fragment, UniProt P31483 320-386, looked up)
chain: GQYMPNGWQVPAYGMYGQAWNQQGFNQTQSSAPWAGPNYGVQPPQGQNGSMLPNQPSGYRVAGYETQ
notes: TIA-1, human, short PLD, residues 320-386, with M354A
B5: human TIA-1 sPLD (residues 320-386) E384K (domain or fragment, UniProt P31483 320-386, looked up)
chain: GQYMPNGWQVPAYGMYGQAWNQQGFNQTQSSAPWMGPNYGVQPPQGQNGSMLPNQPSGYRVAGYKTQ
notes: TIA-1, human, short PLD, residues 320-386, with the disease-associated missense mutation E384K
B6: human TIA-1 sPLD (residues 320-386) Q346L (domain or fragment, UniProt P31483 320-386, looked up)
chain: GQYMPNGWQVPAYGMYGQAWNQQGFNLTQSSAPWMGPNYGVQPPQGQNGSMLPNQPSGYRVAGYETQ
notes: TIA-1, human, short PLD, residues 320-386, with Q346L
B7: human TIA-1 sPLD (residues 320-386) W353A (domain or fragment, UniProt P31483 320-386, looked up)
chain: GQYMPNGWQVPAYGMYGQAWNQQGFNQTQSSAPAMGPNYGVQPPQGQNGSMLPNQPSGYRVAGYETQ
notes: TIA-1, human, short PLD, residues 320-386, with W353A
B8: human TIA-1 sPLD (residues 320-386) W339A (domain or fragment, UniProt P31483 320-386, looked up)
chain: GQYMPNGWQVPAYGMYGQAANQQGFNQTQSSAPWMGPNYGVQPPQGQNGSMLPNQPSGYRVAGYETQ
notes: TIA-1, human, short PLD, residues 320-386, with W339A
B9: human TIA-1 sPLD (residues 320-386) P362L (domain or fragment, UniProt P31483 320-386, looked up)
chain: GQYMPNGWQVPAYGMYGQAWNQQGFNQTQSSAPWMGPNYGVQLPQGQNGSMLPNQPSGYRVAGYETQ
notes: TIA-1, human, short PLD, residues 320-386, with the disease-associated missense mutation P362L
B10: human TIA-1 sPLD (residues 320-386) A381T (domain or fragment, UniProt P31483 320-386, looked up)
chain: GQYMPNGWQVPAYGMYGQAWNQQGFNQTQSSAPWMGPNYGVQPPQGQNGSMLPNQPSGYRVTGYETQ
notes: TIA-1, human, short PLD, residues 320-386, with the disease-associated missense mutation A381T
B11: human TIA-1 sPLD (residues 320-386) G343P (domain or fragment, UniProt P31483 320-386, looked up)
chain: GQYMPNGWQVPAYGMYGQAWNQQPFNQTQSSAPWMGPNYGVQPPQGQNGSMLPNQPSGYRVAGYETQ
notes: TIA-1, human, short PLD, residues 320-386, with G343P
B12: synthesized peptide of the 25-residue TIA-1 fibril core (TFC peptide), residues 336-360 (peptide, UniProt P31483 336-360, looked up)
peptide: GQAWNQQGFNQTQSSAPWMGPNYGV
notes: TIA-1, human, fibril core region, residues 336-360 (25 residues); also called TFC peptide fibrils; TFC fibrils; source: synthetic peptide
B13: full-length human TIA-1 WT (natural protein, UniProt P31483 1-386, looked up)
chain: MEDEMPKTLYVGNLSRDVTEALILQLFSQIGPCKNCKMIMDTAGNDPYCFVEFHEHRHAAAALAAMNGRKIMGKEVKVNWATTPSSQKKDTSSSTVVSTQRSQDHFHVFVGDLSPEITTEDIKAAFAPFGRISDARVVKDMATGKSKGYGFVSFFNKWDAENAIQQMGGQWLGGRQIRTNWATRKPPAPKSTYESNTKQLSYDEVVNQSSPSNCTVYCGGVTSGLTEQLMRQTFSPFGQIMEIRVFPDKGYSFVRFNSHESAAHAIVSVNGTTIEGHVVKCYWGKETLDMINPVQQQNQIGYPQPYGQWGQWYGNAQQIGQYMPNGWQVPAYGMYGQAWNQQGFNQTQSSAPWMGPNYGVQPPQGQNGSMLPNQPSGYRVAGYETQ
notes: T-cell intracellular antigen-1 (TIA-1), human, full length, 386 residues (three RRMs followed by the PLD); also called full-length TIA-1; FL; source: recombinant
B14: full-length human TIA-1 A381T (natural protein, UniProt P31483 1-386, looked up)
chain: MEDEMPKTLYVGNLSRDVTEALILQLFSQIGPCKNCKMIMDTAGNDPYCFVEFHEHRHAAAALAAMNGRKIMGKEVKVNWATTPSSQKKDTSSSTVVSTQRSQDHFHVFVGDLSPEITTEDIKAAFAPFGRISDARVVKDMATGKSKGYGFVSFFNKWDAENAIQQMGGQWLGGRQIRTNWATRKPPAPKSTYESNTKQLSYDEVVNQSSPSNCTVYCGGVTSGLTEQLMRQTFSPFGQIMEIRVFPDKGYSFVRFNSHESAAHAIVSVNGTTIEGHVVKCYWGKETLDMINPVQQQNQIGYPQPYGQWGQWYGNAQQIGQYMPNGWQVPAYGMYGQAWNQQGFNQTQSSAPWMGPNYGVQPPQGQNGSMLPNQPSGYRVTGYETQ
notes: TIA-1, human, full length, 386 residues, with the disease-associated missense mutation A381T; source: recombinant
B15: full-length human TIA-1 G355R (natural protein, UniProt P31483 1-386, looked up)
chain: MEDEMPKTLYVGNLSRDVTEALILQLFSQIGPCKNCKMIMDTAGNDPYCFVEFHEHRHAAAALAAMNGRKIMGKEVKVNWATTPSSQKKDTSSSTVVSTQRSQDHFHVFVGDLSPEITTEDIKAAFAPFGRISDARVVKDMATGKSKGYGFVSFFNKWDAENAIQQMGGQWLGGRQIRTNWATRKPPAPKSTYESNTKQLSYDEVVNQSSPSNCTVYCGGVTSGLTEQLMRQTFSPFGQIMEIRVFPDKGYSFVRFNSHESAAHAIVSVNGTTIEGHVVKCYWGKETLDMINPVQQQNQIGYPQPYGQWGQWYGNAQQIGQYMPNGWQVPAYGMYGQAWNQQGFNQTQSSAPWMRPNYGVQPPQGQNGSMLPNQPSGYRVAGYETQ
notes: TIA-1, human, full length, 386 residues, with the missense mutation G355R (found in genetic research on ALS/FTD); source: recombinant
B16: full-length human TIA-1 E384K (natural protein, UniProt P31483 1-386, looked up)
chain: MEDEMPKTLYVGNLSRDVTEALILQLFSQIGPCKNCKMIMDTAGNDPYCFVEFHEHRHAAAALAAMNGRKIMGKEVKVNWATTPSSQKKDTSSSTVVSTQRSQDHFHVFVGDLSPEITTEDIKAAFAPFGRISDARVVKDMATGKSKGYGFVSFFNKWDAENAIQQMGGQWLGGRQIRTNWATRKPPAPKSTYESNTKQLSYDEVVNQSSPSNCTVYCGGVTSGLTEQLMRQTFSPFGQIMEIRVFPDKGYSFVRFNSHESAAHAIVSVNGTTIEGHVVKCYWGKETLDMINPVQQQNQIGYPQPYGQWGQWYGNAQQIGQYMPNGWQVPAYGMYGQAWNQQGFNQTQSSAPWMGPNYGVQPPQGQNGSMLPNQPSGYRVAGYKTQ
notes: TIA-1, human, full length, 386 residues, with the disease-associated missense mutation E384K; source: recombinant
B17: full-length human TIA-1 P362L (natural protein, UniProt P31483 1-386, looked up)
chain: MEDEMPKTLYVGNLSRDVTEALILQLFSQIGPCKNCKMIMDTAGNDPYCFVEFHEHRHAAAALAAMNGRKIMGKEVKVNWATTPSSQKKDTSSSTVVSTQRSQDHFHVFVGDLSPEITTEDIKAAFAPFGRISDARVVKDMATGKSKGYGFVSFFNKWDAENAIQQMGGQWLGGRQIRTNWATRKPPAPKSTYESNTKQLSYDEVVNQSSPSNCTVYCGGVTSGLTEQLMRQTFSPFGQIMEIRVFPDKGYSFVRFNSHESAAHAIVSVNGTTIEGHVVKCYWGKETLDMINPVQQQNQIGYPQPYGQWGQWYGNAQQIGQYMPNGWQVPAYGMYGQAWNQQGFNQTQSSAPWMGPNYGVQLPQGQNGSMLPNQPSGYRVAGYETQ
notes: TIA-1, human, full length, 386 residues, with the disease-associated missense mutation P362L; source: recombinant

Molecular target: the molecule itself
Assay: cryo-EM structure; twisted amyloid fibrils of TIA-1 sPLD; fibrils grown by adding sonicated seeds to a monomer solution in 0.1% trifluoroacetic acid; helical reconstruction, two protofilaments
B1: binds. B2: binds.

Molecular target: the molecule itself
Assay: thioflavin T fluorescence + negative-stain TEM; fibril formation of TIA-1 sPLD from phase-separated condensates, without TC5, physiological buffer, 30 °C, 3 days
B3: binds. B4: binds. B5: binds. B6: binds. B7: binds. B8: binds. B9: binds. B10: binds. B11: binds.

Molecular target: the molecule itself
Assay: thioflavin T fluorescence + negative-stain TEM; fibril formation of the synthetic TFC peptide alone, 100 to 12.5 μM
B12: binds.

Molecular target: the molecule itself
Assay: thioflavin T fluorescence + negative-stain TEM; fibril formation of recombinant full-length TIA-1 from phase-separated condensates, with single-stranded DNA TC5, physiological buffer, 30 °C, up to 3 days
B13: binds. B14: binds. B15: binds. B16: binds. B17: binds.
